Laboratory results from the supplement of paper PMC10065799, “High-throughput profiling of sequence recognition by tyrosine kinases and SH2 domains using bacterial peptide display” (eLife, 2023).

Experiments:
Jak2 = Jak2 (UniProt O60674); experiment: phosphorylation enrichment, bacterial display (enrichment ratio); higher = better substrate or ligand; peptides without Tyr show the background
c-Abl (mouse) = experiment: as above
EPHB2 = EPHB2 (UniProt P29323); experiment: as above
Fer (mouse) = experiment: as above
MERTK = MERTK (UniProt Q12866); experiment: as above
Chain of MERTK (Q12866 whole entry, looked up): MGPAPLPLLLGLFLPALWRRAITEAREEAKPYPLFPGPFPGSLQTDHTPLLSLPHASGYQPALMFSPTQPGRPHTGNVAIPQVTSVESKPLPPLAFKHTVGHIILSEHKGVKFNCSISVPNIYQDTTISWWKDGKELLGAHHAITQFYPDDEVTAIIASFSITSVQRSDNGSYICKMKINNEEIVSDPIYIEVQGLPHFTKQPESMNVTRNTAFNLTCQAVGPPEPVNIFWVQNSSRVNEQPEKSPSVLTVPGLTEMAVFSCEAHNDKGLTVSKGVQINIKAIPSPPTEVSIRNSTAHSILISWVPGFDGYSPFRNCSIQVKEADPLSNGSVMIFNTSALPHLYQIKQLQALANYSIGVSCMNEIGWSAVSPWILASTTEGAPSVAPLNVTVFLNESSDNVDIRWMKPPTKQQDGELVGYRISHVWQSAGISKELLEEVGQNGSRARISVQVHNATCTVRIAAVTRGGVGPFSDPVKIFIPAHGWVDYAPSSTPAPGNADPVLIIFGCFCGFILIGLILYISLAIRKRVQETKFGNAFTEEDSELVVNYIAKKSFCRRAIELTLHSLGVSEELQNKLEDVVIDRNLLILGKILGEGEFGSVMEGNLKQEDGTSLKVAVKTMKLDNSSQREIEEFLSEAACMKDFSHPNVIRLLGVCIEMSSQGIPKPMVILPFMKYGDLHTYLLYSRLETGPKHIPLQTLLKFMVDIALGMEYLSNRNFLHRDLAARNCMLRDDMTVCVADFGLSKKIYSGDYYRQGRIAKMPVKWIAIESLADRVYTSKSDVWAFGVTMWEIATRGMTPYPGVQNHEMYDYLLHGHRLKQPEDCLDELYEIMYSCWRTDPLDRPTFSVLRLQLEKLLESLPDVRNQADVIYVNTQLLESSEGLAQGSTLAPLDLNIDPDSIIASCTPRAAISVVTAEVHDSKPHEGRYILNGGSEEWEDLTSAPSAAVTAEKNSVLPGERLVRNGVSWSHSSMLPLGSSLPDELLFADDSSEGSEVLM

c-Src = experiment: as above
FGFR3 = FGFR3 (UniProt P22607); experiment: as above
Chain of FGFR3 (P22607 whole entry, looked up): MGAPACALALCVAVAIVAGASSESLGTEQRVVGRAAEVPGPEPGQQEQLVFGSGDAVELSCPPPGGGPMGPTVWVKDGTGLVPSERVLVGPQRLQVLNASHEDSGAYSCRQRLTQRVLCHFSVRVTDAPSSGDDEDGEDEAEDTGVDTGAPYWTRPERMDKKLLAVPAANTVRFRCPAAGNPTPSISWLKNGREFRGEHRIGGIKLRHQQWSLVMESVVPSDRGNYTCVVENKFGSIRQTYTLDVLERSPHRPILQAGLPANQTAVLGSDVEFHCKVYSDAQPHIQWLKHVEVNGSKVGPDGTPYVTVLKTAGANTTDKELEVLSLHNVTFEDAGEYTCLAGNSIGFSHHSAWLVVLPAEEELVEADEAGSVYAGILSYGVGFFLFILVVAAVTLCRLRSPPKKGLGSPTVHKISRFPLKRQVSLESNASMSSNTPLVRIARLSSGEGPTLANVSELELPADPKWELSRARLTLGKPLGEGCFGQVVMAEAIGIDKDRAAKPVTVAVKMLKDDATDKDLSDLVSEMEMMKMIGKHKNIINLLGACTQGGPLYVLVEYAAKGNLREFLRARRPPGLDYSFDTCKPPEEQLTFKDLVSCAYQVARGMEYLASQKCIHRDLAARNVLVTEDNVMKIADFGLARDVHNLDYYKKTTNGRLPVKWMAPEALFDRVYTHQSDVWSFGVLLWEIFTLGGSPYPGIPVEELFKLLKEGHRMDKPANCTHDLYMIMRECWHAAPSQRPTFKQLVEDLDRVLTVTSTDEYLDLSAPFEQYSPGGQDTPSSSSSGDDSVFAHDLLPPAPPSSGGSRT

Hck = Hck (UniProt P08631); experiment: as above
Chain of Hck (P08631 whole entry, looked up): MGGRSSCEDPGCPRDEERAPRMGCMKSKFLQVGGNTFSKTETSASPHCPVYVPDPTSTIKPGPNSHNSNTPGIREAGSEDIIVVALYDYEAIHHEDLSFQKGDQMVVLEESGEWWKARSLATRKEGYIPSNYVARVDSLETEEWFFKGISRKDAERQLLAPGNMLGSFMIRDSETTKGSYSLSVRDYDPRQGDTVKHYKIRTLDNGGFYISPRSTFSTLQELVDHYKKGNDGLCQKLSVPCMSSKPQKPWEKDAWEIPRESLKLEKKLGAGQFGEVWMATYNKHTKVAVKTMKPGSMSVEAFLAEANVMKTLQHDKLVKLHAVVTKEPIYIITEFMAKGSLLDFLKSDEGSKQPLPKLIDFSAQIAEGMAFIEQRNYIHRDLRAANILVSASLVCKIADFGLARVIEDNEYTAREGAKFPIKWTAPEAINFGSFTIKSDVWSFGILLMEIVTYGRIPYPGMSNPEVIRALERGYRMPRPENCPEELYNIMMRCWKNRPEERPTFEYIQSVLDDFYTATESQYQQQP

FGFR1 = FGFR1 (UniProt P11362); experiment: as above
Chain of FGFR1 (P11362 whole entry, looked up): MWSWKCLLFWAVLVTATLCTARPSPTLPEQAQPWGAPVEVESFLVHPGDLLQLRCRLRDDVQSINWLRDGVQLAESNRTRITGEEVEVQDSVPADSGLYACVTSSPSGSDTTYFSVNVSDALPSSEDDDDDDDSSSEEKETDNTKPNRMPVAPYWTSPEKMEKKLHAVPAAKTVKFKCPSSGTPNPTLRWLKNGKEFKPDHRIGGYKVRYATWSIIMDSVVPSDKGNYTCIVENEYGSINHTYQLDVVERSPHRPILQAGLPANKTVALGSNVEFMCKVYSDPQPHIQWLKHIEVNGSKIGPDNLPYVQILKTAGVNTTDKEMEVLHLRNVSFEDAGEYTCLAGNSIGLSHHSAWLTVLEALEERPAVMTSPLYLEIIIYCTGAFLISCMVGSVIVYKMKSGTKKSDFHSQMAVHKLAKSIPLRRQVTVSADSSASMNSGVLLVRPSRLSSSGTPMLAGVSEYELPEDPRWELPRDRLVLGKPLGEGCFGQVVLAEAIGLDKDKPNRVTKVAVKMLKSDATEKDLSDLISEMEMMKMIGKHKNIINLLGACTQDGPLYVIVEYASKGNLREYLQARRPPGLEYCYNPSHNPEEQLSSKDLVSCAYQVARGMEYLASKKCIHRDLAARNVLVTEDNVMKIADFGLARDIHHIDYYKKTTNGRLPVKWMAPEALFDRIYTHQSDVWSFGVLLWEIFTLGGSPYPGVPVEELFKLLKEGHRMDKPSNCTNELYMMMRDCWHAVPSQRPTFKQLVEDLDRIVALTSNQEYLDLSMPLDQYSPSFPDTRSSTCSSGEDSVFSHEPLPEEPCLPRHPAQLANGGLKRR

EPHB1 = EPHB1 (UniProt P54762); experiment: as above
Chain of EPHB1 (P54762 whole entry, looked up): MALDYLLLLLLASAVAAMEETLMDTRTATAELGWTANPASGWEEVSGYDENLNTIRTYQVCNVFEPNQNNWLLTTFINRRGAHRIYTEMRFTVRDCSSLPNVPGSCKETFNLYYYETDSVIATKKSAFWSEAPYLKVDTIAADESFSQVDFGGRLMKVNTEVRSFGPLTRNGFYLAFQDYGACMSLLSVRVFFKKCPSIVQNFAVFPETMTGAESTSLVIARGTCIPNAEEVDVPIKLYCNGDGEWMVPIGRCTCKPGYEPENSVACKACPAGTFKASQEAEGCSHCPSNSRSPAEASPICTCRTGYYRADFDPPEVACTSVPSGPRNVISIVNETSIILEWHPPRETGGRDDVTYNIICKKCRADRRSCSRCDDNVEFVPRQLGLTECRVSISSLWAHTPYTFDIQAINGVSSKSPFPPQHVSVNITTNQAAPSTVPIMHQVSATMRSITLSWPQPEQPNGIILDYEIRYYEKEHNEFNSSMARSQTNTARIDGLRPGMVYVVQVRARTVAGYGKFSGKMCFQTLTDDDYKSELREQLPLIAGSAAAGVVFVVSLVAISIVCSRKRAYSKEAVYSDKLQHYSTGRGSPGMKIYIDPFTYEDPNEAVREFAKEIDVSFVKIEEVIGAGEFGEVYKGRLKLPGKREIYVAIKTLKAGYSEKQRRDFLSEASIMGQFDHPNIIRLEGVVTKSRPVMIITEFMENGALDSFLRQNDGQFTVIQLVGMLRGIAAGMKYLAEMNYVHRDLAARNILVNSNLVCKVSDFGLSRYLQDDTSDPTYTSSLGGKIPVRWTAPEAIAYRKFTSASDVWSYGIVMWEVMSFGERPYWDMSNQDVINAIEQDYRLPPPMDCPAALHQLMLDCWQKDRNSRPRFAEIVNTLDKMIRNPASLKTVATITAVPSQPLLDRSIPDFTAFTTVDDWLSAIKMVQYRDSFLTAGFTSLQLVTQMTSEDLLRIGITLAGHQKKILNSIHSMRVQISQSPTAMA

AncSZ = experiment: as above
Fyn = Fyn (UniProt P06241); experiment: as above
Fes = Fes (UniProt P07332); experiment: as above
Chain of Fes (P07332 whole entry, looked up): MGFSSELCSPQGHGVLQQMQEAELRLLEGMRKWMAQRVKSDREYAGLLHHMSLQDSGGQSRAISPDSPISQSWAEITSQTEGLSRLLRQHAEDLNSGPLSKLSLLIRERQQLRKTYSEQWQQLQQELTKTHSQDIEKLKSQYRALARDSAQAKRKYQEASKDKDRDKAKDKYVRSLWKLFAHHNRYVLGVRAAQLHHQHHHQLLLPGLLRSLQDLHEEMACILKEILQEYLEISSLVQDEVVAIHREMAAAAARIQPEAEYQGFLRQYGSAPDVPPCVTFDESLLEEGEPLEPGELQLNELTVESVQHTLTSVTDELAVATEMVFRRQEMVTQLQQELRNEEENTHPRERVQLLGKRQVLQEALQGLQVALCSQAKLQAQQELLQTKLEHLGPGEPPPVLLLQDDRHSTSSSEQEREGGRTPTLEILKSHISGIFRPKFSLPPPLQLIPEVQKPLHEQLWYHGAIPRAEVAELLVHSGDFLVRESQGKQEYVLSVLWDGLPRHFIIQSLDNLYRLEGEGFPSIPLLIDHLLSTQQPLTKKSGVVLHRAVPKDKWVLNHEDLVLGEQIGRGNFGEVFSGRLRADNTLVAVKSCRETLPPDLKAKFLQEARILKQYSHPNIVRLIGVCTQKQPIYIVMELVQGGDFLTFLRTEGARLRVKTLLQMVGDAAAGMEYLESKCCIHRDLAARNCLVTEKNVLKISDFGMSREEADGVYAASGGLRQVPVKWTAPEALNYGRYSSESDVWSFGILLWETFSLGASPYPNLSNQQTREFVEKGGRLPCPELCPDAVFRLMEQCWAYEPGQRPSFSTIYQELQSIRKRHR

c-Src SH2 = experiment: SH2 binding enrichment of the phosphorylated peptide, bacterial display (enrichment ratio); higher = better substrate or ligand; peptides without Tyr show the background
Grb2 SH2 = Grb2 SH2 (UniProt P62993); experiment: as above
SHP2-C SH2 = experiment: as above
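Throughout, for SH2 binding enrichment of the phosphorylated peptide, bacterial display: peptide library displayed on the E. coli surface as eCPX fusions, selected cells deep-sequenced, score is each peptide's frequency after selection divided by its frequency in the input.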
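Throughout, for phosphorylation enrichment, bacterial display: 11-residue human phosphosite peptides and single-mutation variants displayed on the E. coli surface, counted by deep sequencing, each peptide's frequency after selection divided by its frequency in the unselected input library; frequency after pTyr selection over input frequency; kinase dosed for 20-30% of maximal phosphorylation in three min.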

| Sequence | SH2 binding enrichment (c-Src SH2) | SH2 binding enrichment (Grb2 SH2) | SH2 binding enrichment (SHP2-C SH2) | phosphorylation enrichment (Jak2) | phosphorylation enrichment (c-Abl (mouse)) | phosphorylation enrichment (EPHB2) | phosphorylation enrichment (Fer (mouse)) | phosphorylation enrichment (MERTK) | phosphorylation enrichment (c-Src) | phosphorylation enrichment (FGFR3) | phosphorylation enrichment (Hck) | phosphorylation enrichment (FGFR1) | phosphorylation enrichment (EPHB1) | phosphorylation enrichment (AncSZ) | phosphorylation enrichment (Fyn) | phosphorylation enrichment (Fes) |
| --- | --- | --- | --- | --- | --- | --- | --- | --- | --- | --- | --- | --- | --- | --- | --- | --- |
| KFLVGYEMLAQ [GALT_Y339_M336L] | 2.72 | 1.01 | 1.06 | 0.747 | 0.578 | 0.434 | 0.395 | 0.323 | 0.378 | 0.661 | 0.416 | 0.408 | 0.434 | 0.701 | 0.386 | 0.977 |
| AKIDGYITSFR | 0.625 | 1.02 | 0.936 | 0.535 | 0.573 | 0.411 | 0.468 | 0.468 | 0.407 | 0.573 | 0.381 | 0.513 | 0.427 | 0.795 | 0.439 | 0.957 |
| RHCSGYVLIAM [EFR3A_Y73_R70C] | 1.05 | 1.01 | 1.05 | 0.846 | 0.575 | 0.403 | 0.501 | 0.268 | 0.517 | 0.669 | 0.472 | 0.596 | 0.51 | 0.885 | 0.376 | 0.879 |
| PEADKYCLTFA [FGG_Y300_R301C_YF] | 0.498 | 0.757 | 0.606 | 1.71 | 1.32 | 0.7 | 0.72 | 0.758 | 0.683 | 1.21 | 1.5 | 0.664 | 0.685 | 1.33 | 0.76 | 1.96 |
| GMSQAYSSSQR [DES_Y5] | 0.392 | 0.598 | 0.417 | 0.477 | 0.475 | 0.321 | 0.354 | 0.337 | 0.37 | 0.382 | 0.325 | 0.32 | 0.379 | 0.466 | 0.309 | 0.685 |
| SSKILYHIIKG [CDH17_Y489] | 6.59 | 0.958 | 3.78 | 0.63 | 0.438 | 0.529 | 0.383 | 1.12 | 0.453 | 0.923 | 0.655 | 1.22 | 0.395 | 0.565 | 0.45 | 0.798 |
| KVKGEYDMTVP [AHNAK_Y964] | 0.499 | 0.756 | 0.692 | 0.543 | 0.372 | 0.36 | 0.637 | 0.463 | 0.414 | 0.607 | 0.443 | 0.469 | 0.491 | 0.669 | 0.434 | 0.744 |
| SQQTYYRVSNM [ABCD1_Y181] | 0.636 | 0.853 | 0.789 | 6.19 | 0.795 | 1.12 | 0.401 | 3.23 | 3 | 5.82 | 3.23 | 7.77 | 1.93 | 0.703 | 1.47 | 0.678 |
| LAEMNYVHQDL [EPHB1_Y740_R743Q] | 0.445 | 0.983 | 0.923 | 0.744 | 0.533 | 0.72 | 0.716 | 0.46 | 0.411 | 1.01 | 0.51 | 0.581 | 1.37 | 1.12 | 0.674 | 1.22 |
| HYGNNYTDVLQ [MACC1_Y803_R804T] | 2.72 | 0.812 | 3.32 | 1.35 | 2.17 | 1.45 | 2.53 | 0.935 | 0.816 | 1.05 | 1.12 | 1.14 | 5.63 | 1.59 | 0.635 | 1.76 |
| GKMSQYLESMQ [CYB5R3_Y130] | 0.415 | 0.657 | 0.715 | 0.539 | 0.548 | 0.454 | 0.373 | 0.435 | 0.517 | 0.426 | 0.494 | 0.444 | 0.336 | 0.646 | 0.457 | 0.583 |
| EVASVYESYQP [MAVS_Y92_Q93E] | 0.727 | 0.919 | 0.504 | 0.849 | 0.783 | 1.61 | 10.1 | 0.71 | 5.67 | 0.737 | 6.67 | 0.527 | 0.948 | 1.83 | 8.41 | 1.11 |
| WSFNLYDINKD [KCNIP3_Y174_A170S] | 0.469 | 0.676 | 0.676 | 1.12 | 0.68 | 0.875 | 1.01 | 0.796 | 0.88 | 0.819 | 1.29 | 0.566 | 0.894 | 1.36 | 1.07 | 1.45 |
| MALDIYRASFF [ALK_Y1278_R1275L_YF] | 0.518 | 0.803 | 0.768 | 0.715 | 4.88 | 0.584 | 0.599 | 0.776 | 1.05 | 0.767 | 1.22 | 0.558 | 0.599 | 0.936 | 1.06 | 0.953 |
| AEDKPYAELWT [MPI_Y46_M51T] | 2.62 | 0.929 | 1.11 | 0.958 | 0.772 | 0.737 | 7.1 | 0.994 | 2.54 | 1 | 1.13 | 1.01 | 0.689 | 1.17 | 1.3 | 1.25 |
| DTLASYLDKVR [KRT12_Y139_R135T] | 0.687 | 0.98 | 0.73 | 0.42 | 0.495 | 0.44 | 0.304 | 0.411 | 0.364 | 0.415 | 0.408 | 0.352 | 0.403 | 0.552 | 0.378 | 0.76 |
| GEIQEYGAPLD [ABCC1_Y1508_S1512L] | 0.454 | 0.822 | 0.734 | 1.03 | 0.743 | 0.716 | 0.528 | 0.467 | 0.485 | 0.798 | 0.485 | 0.598 | 0.74 | 1.15 | 0.514 | 1.09 |
| LERFIYNREEF [HLA-DPB1_Y59_F64Y_YF] | 0.607 | 0.704 | 0.631 | 1.39 | 0.857 | 0.76 | 0.719 | 0.652 | 2.07 | 1.79 | 1.29 | 0.632 | 0.63 | 1.68 | 1.08 | 1.49 |
| PCPANYFAFKI [FAM3D_Y65] | 0.594 | 1.03 | 0.69 | 8.15 | 7.14 | 3.72 | 1.12 | 12.1 | 4.44 | 7.65 | 1.34 | 9.03 | 6.38 | 2.11 | 1.14 | 2.29 |
| ANNEFYFRVCA | 0.37 | 0.716 | 0.567 | 1.39 | 0.923 | 0.548 | 0.536 | 0.44 | 0.412 | 0.824 | 0.516 | 0.445 | 0.563 | 1.28 | 0.483 | 1.43 |
| GCRSKYVGLWG [KCNQ1_Y184] | 0.779 | 1.01 | 1.05 | 0.605 | 0.511 | 0.456 | 0.408 | 0.463 | 0.452 | 0.506 | 0.363 | 0.432 | 0.41 | 0.61 | 0.38 | 0.708 |
| NQKGKYFNVER [ANAPC4_Y469_R465Q] | 0.667 | 1.15 | 1.03 | 0.489 | 0.588 | 0.372 | 0.39 | 0.373 | 0.386 | 0.469 | 0.449 | 0.361 | 0.353 | 0.614 | 0.462 | 0.603 |

Continued, in another order:

| SH2 binding enrichment (c-Src SH2) | SH2 binding enrichment (Grb2 SH2) | SH2 binding enrichment (SHP2-C SH2) | Sequence | phosphorylation enrichment (Jak2) | phosphorylation enrichment (c-Abl (mouse)) | phosphorylation enrichment (EPHB2) | phosphorylation enrichment (Fer (mouse)) | phosphorylation enrichment (MERTK) | phosphorylation enrichment (c-Src) | phosphorylation enrichment (FGFR3) | phosphorylation enrichment (Hck) | phosphorylation enrichment (FGFR1) | phosphorylation enrichment (EPHB1) | phosphorylation enrichment (AncSZ) | phosphorylation enrichment (Fyn) | phosphorylation enrichment (Fes) |
| --- | --- | --- | --- | --- | --- | --- | --- | --- | --- | --- | --- | --- | --- | --- | --- | --- |
| 0.833 | 0.685 | 0.618 | LLNPSYNLPLD [TOM1L1_Y109_R108S] | 0.908 | 0.855 | 0.711 | 0.808 | 0.854 | 0.523 | 1.14 | 1.07 | 0.595 | 1.26 | 1.22 | 0.979 | 1.45 |
| 1.53 | 0.906 | 1.82 | MSRYIYSTDYY [NTRK1_Y676_D674Y] | 2.09 | 0.879 | 11.4 | 1.89 | 12.3 | 7.15 | 6.27 | 5.21 | 8.47 | 8.88 | 2.16 | 6.8 | 1.41 |
| 0.941 | 0.743 | 0.768 | WFPSTYVEEDE [VAV3_Y842] | 1.42 | 0.875 | 0.656 | 0.638 | 0.454 | 0.549 | 0.81 | 0.741 | 0.636 | 0.789 | 1.43 | 0.51 | 1.5 |
| 2.25 | 1.18 | 0.672 | HEGKIYEYNQV [ZNF665_Y162] | 1.39 | 5.38 | 0.987 | 18.4 | 6.51 | 4.23 | 0.81 | 2.04 | 0.746 | 1.06 | 1.98 | 3.02 | 1.56 |
| 3.11 | 0.81 | 1.06 | TGEKPYECVQC [ZNF24_Y335] | 0.664 | 0.519 | 0.507 | 1.87 | 0.509 | 0.501 | 0.531 | 0.521 | 0.501 | 0.514 | 0.755 | 0.515 | 0.7 |
| 0.513 | 0.766 | 0.614 | KILAKYLLETS [NAMPT_Y175] | 0.645 | 0.571 | 0.412 | 0.411 | 0.385 | 0.395 | 0.421 | 0.368 | 0.353 | 0.431 | 0.66 | 0.35 | 0.664 |
| 0.537 | 0.66 | 0.554 | SAGSSYSISSI [PAX5_Y179_G183S] | 0.697 | 0.583 | 0.451 | 0.385 | 0.492 | 0.42 | 0.533 | 0.431 | 0.368 | 0.41 | 0.65 | 0.434 | 0.686 |
| 0.497 | 0.956 | 0.931 | QGCGIYKDYYR [PLA2G2D_Y82_S80G] | 1.21 | 1.18 | 0.904 | 0.67 | 0.773 | 6.8 | 1.19 | 3.57 | 1.1 | 1.04 | 1.69 | 5.71 | 1.59 |
| 0.626 | 0.831 | 0.673 | PVGDAYKKKGL [NMNAT1_Y55] | 0.787 | 0.574 | 0.924 | 0.609 | 0.874 | 0.493 | 0.624 | 0.559 | 0.651 | 0.501 | 0.677 | 0.522 | 0.976 |
| 0.536 | 0.756 | 0.513 | LHQSTYQCYDV [SLC7A14_Y693_R695C] | 1.31 | 1.35 | 2.85 | 2.84 | 1.06 | 5.21 | 1.2 | 2.78 | 1.12 | 2.12 | 1.82 | 3.95 | 1.53 |
| 0.535 | 0.957 | 0.829 | FSSLGYPPPEG [ZSWIM4_Y87_YF] | 0.807 | 0.593 | 0.481 | 0.396 | 0.401 | 0.421 | 0.704 | 0.472 | 0.437 | 0.418 | 0.752 | 0.443 | 0.906 |
